The text below walks through data of article PMC9329571, “Regulation of TIA-1 Condensates: Zn2+ and RGG Motifs Promote Nucleic Acid Driven LLPS and Inhibit Irreversible Aggregation”.

Sequences and labels used below:
B1: TIA-1 RRM2,3 (amino acids 93-274), wild type [not stated] / itself (parent)
chain: NHFHVFVGDLSPEITTEDIKAAFAPFGRISDARVVKDMATGKSKGYGFVSFFNKWDAENAIQQMGGQWLGGRQIRTNWATRKPPAPKSTYESNTKQLSYDEVVNQSSPSNCTVYCGGVTSGLTEQLMRQTFSPFGQIMEIRVFPDKGYSFVRFNSHESAAHAIVSVNGTTIEGHVVKCYWGK

Variants of B1 are the subject of the assay. The assay can be described thus: turbidity (A385 nm). The note with it: with itself; TIA-1:ZnCl2 ratio 1:8; 20 µM protein; 20 mM HEPES, 50 mM NaCl, 1 mM TCEP, pH 6.9, 25°C, within 30 min incubation under shaking; read off a plot.
Regarding chain 1 H4A, the response is 0.072 A.U. For the variant chain 1 H2A H4A, the response is 0.056 A.U. On to chain 1 H2A, for which the response stood at 0.058 A.U.
